Assay results: the supplement of paper PMC9112550, “Optimization of the antimicrobial peptide Bac7 by deep mutational scanning” (BMC Biology, 2022)

test system: Escherichia coli TOP10; assay: shrunken log2 fold change of peptide-encoding DNA abundance (4.5 h post-induction vs induction); higher = less antimicrobial activity (less host growth inhibition); conditions: time post-induction: 4.5 h; library: site-saturation at positions 5, 18, 19, 20
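Also: peptides expressed intracellularly from a pBAD plasmid library in pooled LB shake-flask culture, induced with 0.3% L-arabinose, DNA abundance read by NGS, three biological replicates, DESeq2 with apeglm shrinkage.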

Row | Sequence | shrunken log2 fold change
1 | RRIRGRPPRLPRPRPRPASVPRP | 0.454
2 | RRIRGRPPRLPRPRPRPATPPRP | 1.83
3 | RRIRGRPPRLPRPRPRPATWPRP | 0.565
4 | RRIRGRPPRLPRPRPRPAWVPRP | 0.456
5 | RRIRGRPPRLPRPRPRPCACPRP | 0.225
6 | RRIRGRPPRLPRPRPRPCAYPRP | 0.0946
7 | RRIRGRPPRLPRPRPRPCDCPRP | -0.0193
8 | RRIRGRPPRLPRPRPRPCDFPRP | 0.102
9 | RRIRGRPPRLPRPRPRPCDMPRP | 0.22
10 | RRIRGRPPRLPRPRPRPCEMPRP | 0.852
11 | RRIRGRPPRLPRPRPRPCEWPRP | -0.01
12 | RRIRGRPPRLPRPRPRPCFHPRP | -0.011
13 | RRIRGRPPRLPRPRPRPCGHPRP | 0.666
14 | RRIRGRPPRLPRPRPRPCGYPRP | 0.216
15 | RRIRGRPPRLPRPRPRPCKHPRP | 0.112
16 | RRIRGRPPRLPRPRPRPCKLPRP | -0.378
17 | RRIRGRPPRLPRPRPRPCLEPRP | 0.546
18 | RRIRGRPPRLPRPRPRPCLLPRP | 0.164
19 | RRIRGRPPRLPRPRPRPCLNPRP | 0.165
20 | RRIRGRPPRLPRPRPRPCRPPRP | -0.04
21 | RRIRGRPPRLPRPRPRPCRRPRP | 0.117
22 | RRIRGRPPRLPRPRPRPCSIPRP | 0.0747
23 | RRIRGRPPRLPRPRPRPCVFPRP | 0.664
24 | RRIRGRPPRLPRPRPRPCVMPRP | 0.516
25 | RRIRGRPPRLPRPRPRPCWGPRP | 0.157

Row | Sequence | shrunken log2 fold change
26 | RRIRGRPPRLPRPRPRPCWKPRP | 0.175
27 | RRIRGRPPRLPRPRPRPCWYPRP | 0.0725
28 | RRIRGRPPRLPRPRPRPCYDPRP | 0.156
29 | RRIRGRPPRLPRPRPRPDCAPRP | 1.53
30 | RRIRGRPPRLPRPRPRPDCFPRP | 1.13
31 | RRIRGRPPRLPRPRPRPDCNPRP | 0.679
32 | RRIRGRPPRLPRPRPRPDCTPRP | 0.615
33 | RRIRGRPPRLPRPRPRPDDKPRP | 0.22
34 | RRIRGRPPRLPRPRPRPDEAPRP | 1.56
35 | RRIRGRPPRLPRPRPRPDEIPRP | -0.0447
36 | RRIRGRPPRLPRPRPRPDGIPRP | -0.0219
37 | RRIRGRPPRLPRPRPRPDIFPRP | 0.837
38 | RRIRGRPPRLPRPRPRPDKMPRP | 0.261
39 | RRIRGRPPRLPRPRPRPDLLPRP | 1.51
40 | RRIRGRPPRLPRPRPRPDLTPRP | 0.219
41 | RRIRGRPPRLPRPRPRPDNMPRP | -0.185
42 | RRIRGRPPRLPRPRPRPDWFPRP | 0.448
43 | RRIRGRPPRLPRPRPRPDWYPRP | 0.134
44 | RRIRGRPPRLPRPRPRPEACPRP | 1.11
45 | RRIRGRPPRLPRPRPRPEAKPRP | 1.76
46 | RRIRGRPPRLPRPRPRPEANPRP | 0.632
47 | RRIRGRPPRLPRPRPRPECMPRP | 1.49
48 | RRIRGRPPRLPRPRPRPECPPRP | 0.475
49 | RRIRGRPPRLPRPRPRPEEGPRP | 0.0303
50 | RRIRGRPPRLPRPRPRPEFAPRP | 1.22

Row | Sequence | shrunken log2 fold change
51 | RRIRGRPPRLPRPRPRPEFDPRP | 1.8
52 | RRIRGRPPRLPRPRPRPEFHPRP | 1.85
53 | RRIRGRPPRLPRPRPRPEFPPRP | 0.482
54 | RRIRGRPPRLPRPRPRPEGYPRP | 0.118
55 | RRIRGRPPRLPRPRPRPEHIPRP | 0.19
56 | RRIRGRPPRLPRPRPRPEHLPRP | 0.494
57 | RRIRGRPPRLPRPRPRPELKPRP | 0.336
58 | RRIRGRPPRLPRPRPRPENFPRP | 0.0598
59 | RRIRGRPPRLPRPRPRPENRPRP | 0.19
60 | RRIRGRPPRLPRPRPRPENVPRP | 0.328
61 | RRIRGRPPRLPRPRPRPEPCPRP | 0.795
62 | RRIRGRPPRLPRPRPRPEQLPRP | 0.443
63 | RRIRGRPPRLPRPRPRPEQPPRP | 1.68
64 | RRIRGRPPRLPRPRPRPEVVPRP | 0.918
65 | RRIRGRPPRLPRPRPRPEYIPRP | 0.252
66 | RRIRGRPPRLPRPRPRPFCDPRP | 0.456
67 | RRIRGRPPRLPRPRPRPFDWPRP | 0.0459
68 | RRIRGRPPRLPRPRPRPFFAPRP | 0.747
69 | RRIRGRPPRLPRPRPRPFFVPRP | 0.246
70 | RRIRGRPPRLPRPRPRPFGKPRP | -0.144
71 | RRIRGRPPRLPRPRPRPFHEPRP | -0.537
72 | RRIRGRPPRLPRPRPRPFIDPRP | 0.585
73 | RRIRGRPPRLPRPRPRPFKNPRP | 0.243
74 | RRIRGRPPRLPRPRPRPFLFPRP | 0.39
75 | RRIRGRPPRLPRPRPRPFMLPRP | -0.0447

Row | Sequence | shrunken log2 fold change
76 | RRIRGRPPRLPRPRPRPFPWPRP | 0.383
77 | RRIRGRPPRLPRPRPRPFPYPRP | -0.334
78 | RRIRGRPPRLPRPRPRPFQCPRP | -0.0282
79 | RRIRGRPPRLPRPRPRPFQFPRP | 0.00963
80 | RRIRGRPPRLPRPRPRPFQLPRP | 0.0144
81 | RRIRGRPPRLPRPRPRPFRFPRP | 0.485
82 | RRIRGRPPRLPRPRPRPFRWPRP | 0.053
83 | RRIRGRPPRLPRPRPRPFSPPRP | 0.0723
84 | RRIRGRPPRLPRPRPRPFSSPRP | 0.193
85 | RRIRGRPPRLPRPRPRPFSWPRP | 0.353
86 | RRIRGRPPRLPRPRPRPFTHPRP | 0.0753
87 | RRIRGRPPRLPRPRPRPFVNPRP | -0.0813
88 | RRIRGRPPRLPRPRPRPFWLPRP | 0.299
89 | RRIRGRPPRLPRPRPRPFWQPRP | 0.467
90 | RRIRGRPPRLPRPRPRPGAHPRP | 0.755
91 | RRIRGRPPRLPRPRPRPGAQPRP | 1.19
92 | RRIRGRPPRLPRPRPRPGDAPRP | 1.09
93 | RRIRGRPPRLPRPRPRPGDNPRP | 0.0889
94 | RRIRGRPPRLPRPRPRPGDVPRP | 0.347
95 | RRIRGRPPRLPRPRPRPGEDPRP | 0.872
96 | RRIRGRPPRLPRPRPRPGFHPRP | 0.296
97 | RRIRGRPPRLPRPRPRPGFLPRP | 0.41
98 | RRIRGRPPRLPRPRPRPGHEPRP | 0.202
99 | RRIRGRPPRLPRPRPRPGHYPRP | 0.00558
100 | RRIRGRPPRLPRPRPRPGIGPRP | 0.942

Row | Sequence | shrunken log2 fold change
101 | RRIRGRPPRLPRPRPRPGKLPRP | 0.461
102 | RRIRGRPPRLPRPRPRPGKSPRP | 0.176
103 | RRIRGRPPRLPRPRPRPGKWPRP | 0.566
104 | RRIRGRPPRLPRPRPRPGLEPRP | 1.1
105 | RRIRGRPPRLPRPRPRPGLKPRP | 0.725
106 | RRIRGRPPRLPRPRPRPGLNPRP | 4.08
107 | RRIRGRPPRLPRPRPRPGPNPRP | 0.941
108 | RRIRGRPPRLPRPRPRPGPQPRP | 0.719
109 | RRIRGRPPRLPRPRPRPGQCPRP | 0.275
110 | RRIRGRPPRLPRPRPRPGQGPRP | 0.0965
111 | RRIRGRPPRLPRPRPRPGRDPRP | 0.358
112 | RRIRGRPPRLPRPRPRPGRFPRP | 0.45
113 | RRIRGRPPRLPRPRPRPGSPPRP | 0.469
114 | RRIRGRPPRLPRPRPRPGSSPRP | 0.028
115 | RRIRGRPPRLPRPRPRPGTAPRP | 2.14
116 | RRIRGRPPRLPRPRPRPGTGPRP | 0.84
117 | RRIRGRPPRLPRPRPRPGVCPRP | 0.892
118 | RRIRGRPPRLPRPRPRPGYDPRP | 0.371
119 | RRIRGRPPRLPRPRPRPHCHPRP | 0.284
120 | RRIRGRPPRLPRPRPRPHCVPRP | 0.517
121 | RRIRGRPPRLPRPRPRPHDFPRP | -0.0983
122 | RRIRGRPPRLPRPRPRPHEVPRP | 0.431
123 | RRIRGRPPRLPRPRPRPHEYPRP | -0.325
124 | RRIRGRPPRLPRPRPRPHFFPRP | 0.328
125 | RRIRGRPPRLPRPRPRPHGGPRP | 0.631

Row | Sequence | shrunken log2 fold change
126 | RRIRGRPPRLPRPRPRPHGVPRP | 0.00437
127 | RRIRGRPPRLPRPRPRPHGYPRP | -0.0362
128 | RRIRGRPPRLPRPRPRPHHNPRP | -0.372
129 | RRIRGRPPRLPRPRPRPHIIPRP | 0.234
130 | RRIRGRPPRLPRPRPRPHILPRP | -0.198
131 | RRIRGRPPRLPRPRPRPHIRPRP | 0.0682
132 | RRIRGRPPRLPRPRPRPHKRPRP | 0.34
133 | RRIRGRPPRLPRPRPRPHLWPRP | 0.942
134 | RRIRGRPPRLPRPRPRPHMIPRP | 0.0265
135 | RRIRGRPPRLPRPRPRPHMMPRP | -0.0708
136 | RRIRGRPPRLPRPRPRPHMYPRP | -0.0997
137 | RRIRGRPPRLPRPRPRPHNSPRP | -0.0747
138 | RRIRGRPPRLPRPRPRPHPKPRP | 0.865
139 | RRIRGRPPRLPRPRPRPHSNPRP | 0.117
140 | RRIRGRPPRLPRPRPRPHVGPRP | 0.0375
141 | RRIRGRPPRLPRPRPRPHWFPRP | 0.156
142 | RRIRGRPPRLPRPRPRPHWQPRP | 0.258
143 | RRIRGRPPRLPRPRPRPHWYPRP | -0.0365
144 | RRIRGRPPRLPRPRPRPHYAPRP | -0.0664
145 | RRIRGRPPRLPRPRPRPHYKPRP | -0.0643
146 | RRIRGRPPRLPRPRPRPIAGPRP | 0.701
147 | RRIRGRPPRLPRPRPRPICAPRP | 1.2
148 | RRIRGRPPRLPRPRPRPICMPRP | 0.454
149 | RRIRGRPPRLPRPRPRPIDNPRP | 0.186
150 | RRIRGRPPRLPRPRPRPIGMPRP | 0.244
